One experiment concerns the target IL2 (R&D, 202-IL) (UniProt P60568 21-153). Kind of experiment: ELISA, scFv on anti-V5. The source says:
The scFv DNA sequence for each clone was synthesized as a GBLOCK® (Integrated DNA Technologies, Inc.) with a T7 promoter, a translation initiation site, the coding sequence for the scFv sequence with cMyc and V5 tags, and a T7 terminator sequence. Proteins from each of the GBLOCK® fragments were expressed using a cell-free transcription/translation system (Cosmo Bio USA, Inc., PUREFREX® 2.1, Product #GFK-PF213 with DS Supplement, Prod. #GFK-PF005). […] In these experiments, wells of a 384-well plate were coated with an anti-V5 antibody (Sv5-Pk1, BioRad) at lug/ml overnight at 4 degrees. After washing, wells were blocked with SUPERBLOCK™ (ThermoFisher, 37515) followed by addition of saturating levels of scFvs in SUPERBLOCK™. After washing, antigens were added and plates incubated for one hour. To detect PD1 binding, a biotinylated recombinant PD1 was used (PD1-HisAvi, Acro Biosystems, PD1-H82E4). […] Biotinylated antigens were detected using streptavidin HRP using standard methods. Varying amounts of labelled test antigen were added to show binding and to estimate relative affinities of the different scFvs.

For experiment [1], the target named is T1, biotinylated IL-2 receptor beta gamma heterodimer Fc (IL-2RBG; Acro ILG-H5254) (UniProt P14784 27-239; P31785 23-262, biotinylated).
T1 construct: bought heterodimer
T1 sequence (looked up) 1: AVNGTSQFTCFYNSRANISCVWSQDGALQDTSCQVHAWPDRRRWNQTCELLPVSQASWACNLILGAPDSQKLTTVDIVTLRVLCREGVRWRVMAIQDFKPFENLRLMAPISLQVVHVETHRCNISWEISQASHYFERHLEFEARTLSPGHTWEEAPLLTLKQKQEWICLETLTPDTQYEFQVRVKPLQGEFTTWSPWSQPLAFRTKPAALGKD
T1 sequence (looked up) 2: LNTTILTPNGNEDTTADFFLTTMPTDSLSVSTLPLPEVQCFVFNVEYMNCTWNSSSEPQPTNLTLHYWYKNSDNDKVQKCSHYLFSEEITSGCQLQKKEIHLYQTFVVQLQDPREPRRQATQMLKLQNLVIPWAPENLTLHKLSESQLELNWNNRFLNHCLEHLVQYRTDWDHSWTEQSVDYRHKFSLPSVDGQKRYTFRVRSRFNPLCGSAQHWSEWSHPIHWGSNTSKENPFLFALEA
The experiment can be described thus: ELISA, captured complex, biotin-IL-2RBG titrated.

Consider four molecules from patent US20240366776A1 (Hoffmann-La Roche, published 2024).

B1: AB000880 (anti-PD1 control) scFv (AF000327) (scFv)
scFv: MSTSTEQKLISEEDLQVQLVQSGAEVKKPGASVKVSCKASGYTFTTYYMHWVRQAPGQGLEWMGIINPSGGGTLYAQKFQGRVTMTRDTSTSTVYMELSSLRSEDTAVYYCAAGLFIWGQGTTVTVSSASGGGGSGGGGSGGGGSHASDIVMTQSPDSLAVSLGERATINCKASQSLLHSSSNKNYLAWYQQKPGQPPKLLIYWASTRESGVPDRFSGSGSGTDFTLTISSLQAEDVAVYYCQQYYSTPITFGPGTKVDIKGSGLNDIFEAQKIEWHEGKPIPNPLLGLDST
notes: also called AB000880_PD1_R04_C10
As for B1, the binding result in the experiment with IL2 (R&D, 202-IL) is reported as “no binding”.

B2: AF004695 (other)
heavy 1: QVQLVESGGGVVQPGRSLRLDCKASGITFSNSGMHWVRQAPGKGLEWVAVIWYDGSKRYYADSVKGRFTISRDNSKNTLFLQMNSLRAEDTAVYYCATNDDYWGQGTLVTVSSAKTTAPSVYPLAPVCGDTTGSSVTLGCLVKGYFPEPVTLTWNSGSLSSGVHTFPAVLQSDLYTLSSSVTVTSSTWPSQSITCNVAHPASSTKVDKKIEPRGPTIKPCPPCKCPAPNAAGGPSVFIFPPKIKDVLMISLSPIVTCVVVDVSEDDPDVQISWFVNNVEVHTAQTQTHREDYNSTLRVVSALPIQHQDWMSGKEFKCKVNNKDLGAPIERTISKPKGSVRAPQVYVLPPPEEEMTKKQVTLTCMVTDFMPEDIYVEWTNNGKTELNYKNTEPVLDSDGSYFMYSDLRVEKKNWVERNSYSCSVVHEGLHNHHTTESFSRTPGGGGGSGGGGSGGGGSAPTSSSTKKTQLQLEHLLLDLQMILNGINNYKNPKLTDMLTFEFYMPKKATELKHLQCLERELKPLEEVLNLAQSKNFHLRPRDLISNINVIVLELKGSETTFMCEYADETATIVEFLNRWITFCQSIISTLT
heavy 2: QVQLVESGGGVVQPGRSLRLDCKASGITFSNSGMHWVRQAPGKGLEWVAVIWYDGSKRYYADSVKGRFTISRDNSKNTLFLQMNSLRAEDTAVYYCATNDDYWGQGTLVTVSSAKTTAPSVYPLAPVCGDTTGSSVTLGCLVKGYFPEPVTLTWNSGSLSSGVHTFPAVLQSDLYTLSSSVTVTSSTWPSQSITCNVAHPASSTKVDKKIEPRGPTIKPCPPCKCPAPNAAGGPSVFIFPPKIKDVLMISLSPIVTCVVVDVSEDDPDVQISWFVNNVEVHTAQTQTHREDYNSTLRVVSALPIQHQDWMSGKEFKCKVNNKDLGAPIERTISKPKGSVRAPQVYVLPPPEKEMTKKQVSLTCLVKDFMPEDIYVEWTNNGKTELNYKNTEPVLKSDGSYFMYSKLTVEKKNWVERNSYSCSVVHEGLHNHHTTKSFSRTPGGGGGSGGGGSGGGGSGGGGSQVQLVQSGAEVKKPGASVKVSCKASGDTFTRYYVHWVRQAPGQGLEWMGIINPSGGYASYAQKFQGRVTMTRDTSTSTVYMELSSLRSEDTAVYYCAAGLFIWGQGTLVTVSSASGGGGSGGGGSGGGGSHASDIQMTQSPSSLSASVGDRVTITCRASQSIGRWLAWYQQKPGKAPKLLIYSASNLETGVPSRFSGSGSGTDFTLTISSLQPEDFATYYCQQYNRFPVTFGPGTKVDIK
light: EIVLTQSPATLSLSPGERATLSCRASQSVSSYLAWYQQKPGQAPRLLIYDASNRATGIPARFSGSGSGTDFTLTISSLEPEDFAVYYCQQSSNWPRTFGQGTKVEIKRADAAPTVSIFPPSSEQLTSGGASVVCFLNNFYPKDINVKWKIDGSERQNGVLNSWTDQDSKDSTYSMSSTLTLTKDEYERHNSYTCEATHKTSTSPIVKSFNRNEC
notes: also called AF4695
Take B2: the binding result in experiment [1] is given as “binds”.

B3: AF004696 (other)
heavy 1: B2 heavy 1
heavy 2: QVQLVESGGGVVQPGRSLRLDCKASGITFSNSGMHWVRQAPGKGLEWVAVIWYDGSKRYYADSVKGRFTISRDNSKNTLFLQMNSLRAEDTAVYYCATNDDYWGQGTLVTVSSAKTTAPSVYPLAPVCGDTTGSSVTLGCLVKGYFPEPVTLTWNSGSLSSGVHTFPAVLQSDLYTLSSSVTVTSSTWPSQSITCNVAHPASSTKVDKKIEPRGPTIKPCPPCKCPAPNAAGGPSVFIFPPKIKDVLMISLSPIVTCVVVDVSEDDPDVQISWFVNNVEVHTAQTQTHREDYNSTLRVVSALPIQHQDWMSGKEFKCKVNNKDLGAPIERTISKPKGSVRAPQVYVLPPPEKEMTKKQVSLTCLVKDFMPEDIYVEWTNNGKTELNYKNTEPVLKSDGSYFMYSKLTVEKKNWVERNSYSCSVVHEGLHNHHTTKSFSRTPGGGGGSGGGGSGGGGSGGGGSQVQLVQSGAEVKKPGASVKVSCKASGYTFTRYYMHWVRQAPGQGLEWMGIINPRAGYTSYALKFQGRVTMTRDTSTSTVYMELSSLRSEDTAVYYCTSGWDVWGQGTLVTVSSASGGGGSGGGGSGGGGSHASDIQMTQSPSSLSASVGDRVTITCRASQSISTWLAWYQQKPGKAPKLLIYAASSLDSGVPSRFSGSGSGTDFTLTISSLQPEDFATYYCQQSYSFPVTFGQGTKVEIK
light: B2 light
notes: also called AF4696
With B3, in experiment [1], the binding result is “binds”.

B4: AB000694 (anti-PD1 control) scFv (AF005039) (scFv, V domains shown)
VH: QVQLVESGGGVVQPGRSLRLDCKASGITFSNSGMHWVRQAPGKGLEWVAVIWYDGSKRYYADSVKGRFTISRDNSKNTLFLQMNSLRAEDTAVYYCATNDDYWGQGTLVTVSS
VL: EIVLTQSPATLSLSPGERATLSCRASQSVSSYLAWYQQKPGQAPRLLIYDASNRATGIPARFSGSGSGTDFTLTISSLEPEDFAVYYCQQSSNWPRTFGQGTKVEIK
notes: scFv with cMyc and V5 tags; also called AB000694_nivo
In the case of B4, the binding result with IL2 (R&D, 202-IL) was “no binding”.
